Substitutions are numbered along the chain they refer to. Numbers in names are those of the source. Read-outs that look alike come from different tables or passages of the source.
Key:
HER2 on SK-OV-3 cells = biological target: T1, HER2 on SK-OV-3 cells (UniProt P04626 23-1255, limits assumed); experiment: flow cytometry on SK-OV-3 cells, APC anti-human IgG Fc secondary antibody, mean fluorescence intensity, 4-parameter fit; drawn table
T1 construct: whole, on cells; also called HER2 antigen

[1] = biological target: T2, Recombinant human CD28-Fc (human, UniProt P10747 19-152); experiment: ELISA, coated CD28-Fc
T2 construct: not shown: Fc part

[2] = biological target: T3, Recombinant mouse CD28-Fc (mouse, UniProt P31041 20-150); experiment: ELISA, coated CD28-Fc
T3 construct: not shown: Fc part

[3] = biological target: T4, His-tagged human CD28 protein (human, UniProt P10747 19-152); experiment: Octet BLI, mAb captured;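 also: Anti-human Fc biosensors captured the antibodies, then His-tagged protein analytes at 100 nM associated for 300 s and dissociated for 300 s, fitted by a 1:1 Langmuir model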
T4 construct: not shown: His tag

[4] = biological target: T5, His-tagged human CTLA4 protein (human, UniProt P16410 36-161, limits assumed); experiment: Octet BLI, mAb captured;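 as to Kd: Anti-human Fc biosensors captured the antibodies, then His-tagged protein analytes at 100 nM associated for 300 s and dissociated for 300 s, fitted by a 1:1 Langmuir model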;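 as to koff: Anti-human Fc biosensors captured the antibodies, then His-tagged protein analytes at 100 nM associated for 300 s and dissociated for 300 s, fitted by a 1:1 Langmuir model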
T5 construct: not shown: His tag

Human CD28 on cells = biological target: T6, Human CD28 on cells (human, UniProt P10747 19-220); experiment: flow cytometry, Jurkat cells
T6 construct: Jurkat E6-1 cells, primary human T cells, or transfected HEK293F cells; also called CD28 on Jurkat cells; CD28 on human CD3+ T cells
Procedure: Next, the cells were washed twice with DPBS and further incubated with a APC-anti-human IgG Fc secondary antibody (1 μg/mL, 100 μL/well, Biolegend) for 30 minutes at 4° C. Finally, the cells were washed twice with DPBS and suspended in FACS buffer for flow cytometry analysis. For analysis, the Mean Fluorescence Intensity (MFI) values versus concentrations were plotted using FlowJo 10 software (FlowJo LLC) and the data were further fitted with four-parameter non-linear regression to obtain EC₅₀ values by GraphPad Prism version 7 for Windows, GraphPad Software, La Jolla California USA, www.graphpad.com.

[5] = biological target: Human CD28 (ELISAs of Examples 4 and 13) (human, UniProt P10747 19-152, limits assumed); experiment: ELISA, blocking of CD28-CD80
[6] = biological target: T2, Recombinant human CD28-Fc; experiment: ELISA on coated recombinant human CD28-Fc, HRP anti-human IgG (Fab specific), A450
Procedure: (§1) When measuring the masking efficiency through ELISA, recombinant human CD28-Fc was diluted to 2 g/mL in PBS and coated onto a MaxiSorp™ high protein-binding capacity 96 well ELISA plate (ThermoFisher Scientific) at 4° C. overnight. Plates were blocked with PBS supplemented with 3% non-fat milk at 37° C. for 1 hour. After washing, 100 μL of 3-fold serial dilutions of anti-CD28 test mAbs were added to each well. After incubation at 37° C. for 1 hour, plates were washed four times, and 100 μL horseradish peroxidase (HRP)-conjugated anti-human IgG (Fab specific) (1:6000 dilution) secondary antibody was added to each well. Plates were incubated at 37° C. for 1 hour, washed four times, and then 50 μL a TMB substrate (3, 3′, 5, 5′-tetramethylbenzidine) solution was added to each well, and the plate was incubated at room temperature. Absorbance at 450 nm was measured after the reactions were stopped with 50 μL sulfuric acid stop solution per well. The EC₅₀ was evaluated by fitting the ELISA data using the sigmoidal (four-parameter logistic equation) model of GraphPad Prism version 6 for Windows, GraphPad Software, La Jolla California USA, www.graphpad.com.

[7] = biological target: T2, Recombinant human CD28-Fc; experiment: as above; remark: listed apart in the source
Procedure: as §1

[8] = biological target: T3, Recombinant mouse CD28-Fc; experiment: ELISA on coated recombinant mouse CD28-Fc, HRP anti-human IgG (Fab specific), A450; panel 'Mouse CD28'
Procedure: Recombinant human and mouse CD28-Fc were diluted to 2 g/mL in PBS and coated on Nunc MaxiSorp™ high protein-binding capacity 96 well ELISA plates (ThermoFisher Scientific) at 4° C. overnight. Plates were blocked with PBS supplemented with 3% non-fat milk at 37° C. for 1 hour. After washing, 50 PL of 3-fold serial dilutions of a panel of anti-CD28 test mAbs were added to each well. After incubation at 37° C. for 1 hour, plates were washed four times, and 100 μL of a horseradish peroxidase (HRP)-conjugated anti-human IgG (Fab specific) (1:6000 dilution) secondary antibody was added to each well. Plates were incubated at 37° C. for 1 hour, washed four times, and then 50 μL of a TMB substrate (3, 3′, 5, 5′-tetramethylbenzidine) solution was added to each well, and the plate was incubated at room temperature. Absorbance at 450 nm was measured after the reactions were stopped by adding 50 μL of a sulfuric acid stop solution to each well. The EC₅₀ was evaluated by fitting the ELISA data using the asymmetrical sigmoidal (4-parameter logistic equation) model of GraphPad Prism version 7 for Windows, GraphPad Software, La Jolla California USA, www.graphpad.com.

[9] = biological target: T5, His-tagged human CTLA4 protein; experiment: Octet BLI, mAb captured; remark: listed apart in the source;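 as to Kd: Anti-human Fc biosensors captured the antibodies, then His-tagged protein analytes at 100 nM associated for 300 s and dissociated for 300 s, fitted by a 1:1 Langmuir model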
Procedure: The Octet® RED96 Systems (ForteBio) was used to assess the binding kinetics of the panel of anti-CD28 mAbs to human CD28 and CTLA4. Briefly, the mAbs were diluted to 15 μg/mL in kinetic buffer (PBS supplemented with 0.02% Tween 20 and 0.1% BSA), and captured by Dip and Read AHC biosensors (ForteBio) in parallel. The sensors were then allowed to associate with His-tagged human CD28 and CTLA4 proteins (100 nM) for 300 seconds, and to dissociate in kinetic buffer for another 300 seconds. The association and dissociation curves were fitted to a 1:1 Langmuir binding model using the Octet® Data Analysis Software Version 7.1 (ForteBio).

[10] = biological target: Human CTLA4 (ligand competition ELISA) (human, UniProt P16410 36-161, limits assumed); experiment: ELISA, blocking of CTLA4-CD80
[11] = biological target: T7, TROP2 on tumor cell lines (UniProt P09758 27-323, limits assumed); experiment: flow cytometry, H292 cells
T7 construct: whole, on cells; also called tumor-associated calcium signal transducer 2; TROP2 on H292, NCI-N87, HT-29
T7 sequence (looked up): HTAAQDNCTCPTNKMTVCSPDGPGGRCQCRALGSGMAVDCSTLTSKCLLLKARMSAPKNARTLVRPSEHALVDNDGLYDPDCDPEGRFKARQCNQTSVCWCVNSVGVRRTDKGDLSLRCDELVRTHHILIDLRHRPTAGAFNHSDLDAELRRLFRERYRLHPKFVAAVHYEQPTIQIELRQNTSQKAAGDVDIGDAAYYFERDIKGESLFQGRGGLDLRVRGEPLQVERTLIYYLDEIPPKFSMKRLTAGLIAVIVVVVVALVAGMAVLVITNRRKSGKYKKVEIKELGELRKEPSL
Procedure: (§2) H292, NCI-N87, or HT29 cells were cultured and seeded in 96-well plates at 1.0×10⁵ cells/well and incubated with serially diluted test anti-TROP2 BsAbs for 30 minutes at 4° C. in 2% FBS/RPMI1640 buffer. Next, the cells were washed twice with DPBS and further incubated with secondary anti-human IgG antibodies (APC-anti-human IgG Fc antibody, 1:300 dilution for H292 cell; APC-F (ab′) 2 fragment goat anti-human IgG (H+L), 1:500 dilution for NCI-N87 and HT29 cells) for 30 minutes at 4° C. Finally, the cells were washed twice with DPBS and resuspended in FACS buffer for flow cytometry analysis. For analysis, the MFI values versus concentrations were plotted using FlowJo 10 software (FlowJo LLC) and the data were further fitted with four-parameter non-linear regression to obtain EC₅₀ values by GraphPad Prism version 7 for Windows.

[12] = biological target: T7, TROP2 on tumor cell lines; experiment: flow cytometry, HT-29 cells
Procedure: as §2

[13] = biological target: T7, TROP2 on tumor cell lines; experiment: flow cytometry, NCI-N87 cells
Procedure: as §2

T5 sequence (P16410 36-161 limits assumed): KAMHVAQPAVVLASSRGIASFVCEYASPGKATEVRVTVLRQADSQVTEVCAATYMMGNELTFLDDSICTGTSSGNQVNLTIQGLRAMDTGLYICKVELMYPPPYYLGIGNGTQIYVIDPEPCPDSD
T3 sequence (P31041 20-150 limits assumed): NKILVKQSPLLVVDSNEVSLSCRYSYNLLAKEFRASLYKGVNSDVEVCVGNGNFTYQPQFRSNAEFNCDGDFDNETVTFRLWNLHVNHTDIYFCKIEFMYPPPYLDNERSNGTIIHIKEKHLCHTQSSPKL
Human CTLA4 (ligand competition ELISA), sequence (P16410 36-161 limits assumed): as the sequence (P16410 36-161 limits assumed) above

B1: TY25238 (bispecific antibody)
chain 1: not shown
chain 2: not shown
chain 3: QAVVTQEPSLTVSPGGTVTLTCGSSTGAVTTSNYPNWVQQKPGQAPRGLIGGTNKRAPGVPARFSGSLLGGKAALTLSGAQPEDEAEYYCALWYSNLWVFGGGTKLTVLGGGGSGGGGSGGGGSGGGGSEVQLVESGGGLVQPGGSLRLSCAASGFTFNTYAINWVRQAPGKGLEWVGRIRSKYNNYATYYAESVKGRFTISRDDSKNTLYLQINSLRAEDTAVYYCVRHGNFGTSYVSWFAYWGQGTLVTVSSEPKSSDKTHTCPPCPAPELLGGPSVFLFPPKPKDTLMISRTPEVTCVVVDVSHEDPEVKFNWYVDGVEVHNAKTKPREEQYASTYRVVSVLTVLHQDWLNGKEYKCKVSNKALPAPIEKTISKAKGQPREPQVYTDPPSRDELTKNQVSLTCLVDGFYPSDIAVEWESNGQPENCYKTTPPVLDSDGSFFLYSKLTVDKSRWQQGNVFSCSVMHEALHNHYTQDSLSLSPGK
B1 gave an EC50 (HER2 on SK-OV-3 cells) of 3.74 nM.

B2: TY24865 (antibody, human IgG4 S228P, kappa)
heavy: not shown
light: DIQLTQSPSSLSASVGDRVTITCRASQSVDFHGISFLHWYQQKPGKAPKLLIYAASSLQSGVPSRFSGSGSGTDFTLTISSLQPEDFATYYCQQSYRSPRTFGQGTKVEIKRTVAAPSVFIFPPSDEQLKSGTASVVCLLNNFYPREAKVQWKVDNALQSGNSQESVTEQDSKDSTYSLSSTLTLSKADYEKHKVYACEVTHQGLSSPVTKSFNRGEC
notes: hIgG4/S241P; also called parental anti-CD28 antibody
B2 was tested, and the EC50 [1] was 0.58 nM, the EC50 [2] was > 4.94 nM and the Kd [3] was < 0.001 nM. For the same binder, the binding result [4] was “no binding (tested: 100 nM CTLA4)”, the EC50 (Human CD28 on cells) was 0.46 nM and the IC50 [5] was 0.68 nM. For the same binder, the “EC50 (read off the curve)” value [6] was ~0.7 nM and the “EC50 (read off the curve)” value [7] was ~0.9 nM.

B3: TY24890 (antibody, human IgG4 S228P, kappa, V domains shown)
VH: EVQLVESGGGLVQPGGSLRLSCAASGYSISSGHHWGWIRQAPGKGLEWIGEIYHSGSTYYSPSLKSRVTISRDNSKNTLYLQLNSLRAEDTAVYYCARRELGYAYFDYWGQGTLVTVSS
VL: EIVLTQSPATLSLSPGERATLSCRASQDIRKYLAWYQQKPGQAPRLLIYAASTLQSGVPARFSGSGSGTDFTLTISSLEPEDFAVYYCQQYYRTPLTFGQGTKVEIKR
notes: hIgG4/S241P
B3 was tested, and the EC50 [1] was 1.55 nM, the Kd [3] was 4.44 nM and the koff [3] was 0.000437 s⁻¹. The kon [3] was 98500 M⁻¹ s⁻¹, the Kd [4] was 3.13 nM and the koff [4] was 0.00344 s⁻¹. The kon [4] was 1.1e+06 M⁻¹ s⁻¹, the EC50 (Human CD28 on cells) was 0.59 nM and the IC50 [5] was 0.21 nM. B3: no binding (tested: about 10^-6.9 M) [8].

B4: TY24773 (antibody, human IgG4 S228P, kappa, V domains shown)
VH: EVQLVESGGGLVQPGGSLRLSCAASGYSISSGYHWGWIRQAPGKGLEWIGEIYHSGSTYYSPSLKSRVTISRDNSKNTLYLQLNSLRAEDTAVYYCARKDYYYALDYWGQGTLVTVSS
VL: DIQLTQSPSSLSASVGDRVTITCRASQSVDFYGKSFLHWYQQKPGKAPKLLIYAASTLQSGVPSRFSGSGSGTDFTLTISSLQPEDFATYYCQQSYRTPLTFGQGTKVEIKR
notes: hIgG4/S241P
B4 was tested, and the binding result [9] was “no binding (tested: 100 nM CTLA4)”, the Kd [3] was 8.29 nM and the koff [3] was 0.000319 s⁻¹. For the same binder, the kon [3] was 38500 M⁻¹ s⁻¹ and the EC50 (Human CD28 on cells) was 0.71 nM.

B5: TY24853 (antibody, human IgG4 S228P, kappa, V domains shown)
VH: B4 VH with S30T, Y33H, G36S, Y101D, L105F
VL: B4 VL with Q27E, K34I, L100I
notes: hIgG4/S241P
With B5 the binding result [9] was “no binding (tested: 100 nM CTLA4)”, the Kd [3] was 3.96 nM and the koff [3] was 0.000164 s⁻¹. It also gave a kon [3] of 41600 M⁻¹ s⁻¹ and an EC50 (Human CD28 on cells) of 0.43 nM.

B6: TY21580 (antibody, V domains shown)
VH: EVQLVESGGGLVQPGGSLRLSCAASGYSISSGYHWSWIRQAPGKGLEWLARIDWDDDKYYSTSLKSRLTISRDNSKNTLYLQLNSLRAEDTAVYYCARSYVYFDYWGQGTLVTVSS
VL: DIQLTQSPSSLSASVGDRVTITCRASQSVRGRFLAWYQQKPGKAPKLLIYDASNRATGIPSRFSGSGSGTDFTLTISSLQPEDFATYYCQQSSSWPPTFGQGTKVEIKR
B6 gave an IC50 [10] of 37.2 nM.

B7: TY27571 (bispecific antibody, human IgG1, kappa, N297A)
light: DIQLTQSPSSLSASVGDRVTITCRASQDVSIAVAWYQQKPGKAPKLLIYSASYRYTGVPARFSGSGSGTDFTLTISSLQPEDFATYYCQQHYITPLTFGQGTKVEIKRTVAAPSVFIFPPSDEQLKSGTASVVCLLNNFYPREAKVQWKVDNALQSGNSQESVTEQDSKDSTYSLSSTLTLSKADYEKHKVYACEVTHQGLSSPVTKSFNRGEC
heavy: QVQLLQSGSELKKPGASVKVSCKASGYTFTNYGINWVRQAPGQGLEWLGWIHTYTGEPTYTDDFKGRFVFSLDTSVSTAYLQISSLKADDTAVYYCARGGFGSSYWYFDVWGQGTLVTVSSASTKGPSVFPLAPSSKSTSGGTAALGCLVKDYFPEPVTVSWNSGALTSGVHTFPAVLQSSGLYSLSSVVTVPSSSLGTQTYICNVNHKPSNTKVDKKVEPKSCDKTHTCPPCPAPELLGGPSVFLFPPKPKDTLMISRTPEVTCVVVDVSHEDPEVKFNWYVDGVEVHNAKTKPREEQYASTYRVVSVLTVLHQDWLNGKEYKCKVSNKALPAPIEKTISKAKGQPREPQVYTLPPSRKKLTKNQVKLTCLVKGFYPSDIAVEWESNGQPENNYKTTPPVLDCDGSFFLYSKLTVDKSRWQQGNVFSCSVMHEALHNHYTQKSLSLSPGK
chain: DIQLTQSPSSLSASVGDRVTITCRASQSVDFHGISFLHWYQQKPGKAPKLLIYAASSLQSGVPSRFSGSGSGTDFTLTISSLQPEDFATYYCQQSYRSPRTFGQGTKVEIKGGGGSGGGGSGGGGSGGGGSEVQLVESGGGLVQPGGSLRLSCAASGFSLSTGGVGVSWIRQAPGKGLEWIGEIYHSGSTYYSPSLKSRVTISRDNSKNTLYLQLNSLRAEDTAVYYCARYEYYYYDFDYWGQGTLVTVSSEPKSSDKTHTCPPCPAPELLGGPSVFLFPPKPKDTLMISRTPEVTCVVVDVSHEDPEVKFNWYVDGVEVHNAKTKPREEQYASTYRVVSVLTVLHQDWLNGKEYKCKVSNKALPAPIEKTISKAKGQPREPQVYTDPPSRDELTKNQVSLTCLVDGFYPSDIAVEWESNGQPENCYKTTPPVLDSDGSFFLYSKLTVDKSRWQQGNVFSCSVMHEALHNHYTQDSLSLSPGK
notes: also called anti-TROP2xCD28 BsAb
B7 was tested, and the EC50 [11] was 0.822 nM, the EC50 [12] was 0.559 nM and the EC50 [13] was 0.911 nM.

Source: patent US20250257133A1 (ADAGENE PTE, published 2025)
